Tested on: AMPK, active (upstate) protein

PP2Cε protein (in vitro assay)
dephosphorylation of AMPK: the dephosphorylation of AMPK with PP2Cε occurs concentration-dependently
